B1: PEX5 peptide 110-125 (Peroxisomal targeting signal 1 receptor), 16-mer library wild type / PEX14 Pex14 (PEX14 PEX14, residues 16-84) (parent complex)
chain 1: ADLALSENWAQEFLAA
chain 2: TPGSENVLPREPLIATAVKFLQNSRVRQSPLATRRAFLKKKGLTDEEIDMAFQQSGTAADEPSSLGPAT
B2: RNF115 peptide 67-82 (E3 ubiquitin-protein ligase RNF115), 16-mer library wild type / MDM2 SWIB (MDM2 SWIB/MDM2 domain, residues 17-125) (parent complex)
chain 1: TTTHFAELWGHLDHTM
chain 2: SQIPASEQETLVRPKPLLLKLLKSVGAQKDTYTMKEVLFYLGQYIMTKRLYDEKQQHIVYCSNDLLGDLFGVPSFSVKEHRKIYTMIYRNLVVVNQQESSDSGTSVSEN

Variants of: B1
Test: proteomic peptide phage display deep mutational scan (ProP-PD DMS): M13 P8 16-mer library selected against immobilised GST-tagged bait for four days (rounds), NGS of the eluted pools per day and pseudo-replica; bait immobilised on MaxiSorp plates (10 µg), library pre-cleared on GST, 2 h binding at 4 °C, five washes; one round per day, days 1-4; value from days 2 and 3

Compared with chain 1 ADLALSANWAQEFLAA, chain 1 ADLALSENWAHEFLAA is lower in screen value: 0.00398 average fractional NGS count over selection days 2 and 3 (reads of this peptide / all reads for the bait, averaged over … for the first, 0.00141 average fractional NGS count over selection days 2 and 3 (reads of this peptide / all reads for the bait, averaged over … for the second.

Going from chain 1 ADLALSENWAYEFLAA to chain 1 ADLALSENWAFEFLAA, the screen value falls from 0.000918 average fractional NGS count over selection days 2 and 3 (reads of this peptide / all reads for the bait, averaged over … to 0.000569 average fractional NGS count over selection days 2 and 3 (reads of this peptide / all reads for the bait, averaged over ….

First: chain 1 ADLALSENWAWEFLAA
Second: chain 1 ADLALSENWALEFLAA
The screen value of the first is higher: 0.0122 average fractional NGS count over selection days 2 and 3 (reads of this peptide / all reads for the bait, averaged over … for the first, 0.00081 average fractional NGS count over selection days 2 and 3 (reads of this peptide / all reads for the bait, averaged over … for the second.

First: chain 1 AKLALSENWAQEFLAA
Second: chain 1 AYLALSENWAQEFLAA
The screen value of the first is higher: 0.000496 average fractional NGS count over selection days 2 and 3 (reads of this peptide / all reads for the bait, averaged over … for the first, 0.000446 average fractional NGS count over selection days 2 and 3 (reads of this peptide / all reads for the bait, averaged over … for the second.

First: chain 1 APLALSENWAQEFLAA
Second: chain 1 AWLALSENWAQEFLAA
The screen value of the first is higher: 0.00139 average fractional NGS count over selection days 2 and 3 (reads of this peptide / all reads for the bait, averaged over … for the first, 0.000382 average fractional NGS count over selection days 2 and 3 (reads of this peptide / all reads for the bait, averaged over … for the second.

Going from chain 1 ALLALSENWAQEFLAA to chain 1 AALALSENWAQEFLAA, the screen value rises from 0.000809 average fractional NGS count over selection days 2 and 3 (reads of this peptide / all reads for the bait, averaged over … to 0.00157 average fractional NGS count over selection days 2 and 3 (reads of this peptide / all reads for the bait, averaged over ….

Going from chain 1 AELALSENWAQEFLAA to chain 1 ARLALSENWAQEFLAA, the screen value rises from 0.000736 average fractional NGS count over selection days 2 and 3 (reads of this peptide / all reads for the bait, averaged over … to 0.000895 average fractional NGS count over selection days 2 and 3 (reads of this peptide / all reads for the bait, averaged over ….

First: chain 1 ADLVLSENWAQEFLAA
Second: chain 1 ADLHLSENWAQEFLAA
The screen value of the first is lower: 0.000411 average fractional NGS count over selection days 2 and 3 (reads of this peptide / all reads for the bait, averaged over … for the first, 0.00244 average fractional NGS count over selection days 2 and 3 (reads of this peptide / all reads for the bait, averaged over … for the second.

First: chain 1 ADLILSENWAQEFLAA
Second: chain 1 ADLTLSENWAQEFLAA
The screen value of the first is lower: 0.000694 average fractional NGS count over selection days 2 and 3 (reads of this peptide / all reads for the bait, averaged over … for the first, 0.00418 average fractional NGS count over selection days 2 and 3 (reads of this peptide / all reads for the bait, averaged over … for the second.

Going from chain 1 ADLNLSENWAQEFLAA to chain 1 ADLPLSENWAQEFLAA, the screen value rises from 0.000393 average fractional NGS count over selection days 2 and 3 (reads of this peptide / all reads for the bait, averaged over … to 0.00132 average fractional NGS count over selection days 2 and 3 (reads of this peptide / all reads for the bait, averaged over ….

First: chain 1 ADLALSENWHQEFLAA
Second: chain 1 ADLALSENWEQEFLAA
The screen value of the first is higher: 0.013 average fractional NGS count over selection days 2 and 3 (reads of this peptide / all reads for the bait, averaged over … for the first, 0.000658 average fractional NGS count over selection days 2 and 3 (reads of this peptide / all reads for the bait, averaged over … for the second.

Going from chain 1 ADLALSENWTQEFLAA to chain 1 ADLALSENWRQEFLAA, the screen value falls from 0.000469 average fractional NGS count over selection days 2 and 3 (reads of this peptide / all reads for the bait, averaged over … to 0.000397 average fractional NGS count over selection days 2 and 3 (reads of this peptide / all reads for the bait, averaged over ….

Compared with chain 1 ADLALSENWGQEFLAA, chain 1 ADLALSENWYQEFLAA is higher in screen value: 0.00143 average fractional NGS count over selection days 2 and 3 (reads of this peptide / all reads for the bait, averaged over … for the first, 0.0104 average fractional NGS count over selection days 2 and 3 (reads of this peptide / all reads for the bait, averaged over … for the second.

Going from chain 1 ADLALSENWWQEFLAA to chain 1 ADAALSENWAQEFLAA, the screen value falls from 0.00181 average fractional NGS count over selection days 2 and 3 (reads of this peptide / all reads for the bait, averaged over … to 0.00097 average fractional NGS count over selection days 2 and 3 (reads of this peptide / all reads for the bait, averaged over ….

Going from chain 1 ADTALSENWAQEFLAA to chain 1 ADIALSENWAQEFLAA, the screen value rises from 0.000563 average fractional NGS count over selection days 2 and 3 (reads of this peptide / all reads for the bait, averaged over … to 0.000729 average fractional NGS count over selection days 2 and 3 (reads of this peptide / all reads for the bait, averaged over ….

First: chain 1 ADQALSENWAQEFLAA
Second: chain 1 ADWALSENWAQEFLAA
The screen value of the first is higher: 0.00182 average fractional NGS count over selection days 2 and 3 (reads of this peptide / all reads for the bait, averaged over … for the first, 0.000685 average fractional NGS count over selection days 2 and 3 (reads of this peptide / all reads for the bait, averaged over … for the second.

Compared with chain 1 ADMALSENWAQEFLAA, chain 1 ADNALSENWAQEFLAA is lower in screen value: 0.00299 average fractional NGS count over selection days 2 and 3 (reads of this peptide / all reads for the bait, averaged over … for the first, 0.000429 average fractional NGS count over selection days 2 and 3 (reads of this peptide / all reads for the bait, averaged over … for the second.

First: chain 1 ADHALSENWAQEFLAA
Second: chain 1 ADFALSENWAQEFLAA
The screen value of the first is higher: 0.00618 average fractional NGS count over selection days 2 and 3 (reads of this peptide / all reads for the bait, averaged over … for the first, 0.000885 average fractional NGS count over selection days 2 and 3 (reads of this peptide / all reads for the bait, averaged over … for the second.

Compared with chain 1 ADLAASENWAQEFLAA, chain 1 ADLATSENWAQEFLAA is lower in screen value: 0.00106 average fractional NGS count over selection days 2 and 3 (reads of this peptide / all reads for the bait, averaged over … for the first, 0.000402 average fractional NGS count over selection days 2 and 3 (reads of this peptide / all reads for the bait, averaged over … for the second.

Going from chain 1 ADLAQSENWAQEFLAA to chain 1 ADLAHSENWAQEFLAA, the screen value rises from 0.000395 average fractional NGS count over selection days 2 and 3 (reads of this peptide / all reads for the bait, averaged over … to 0.00347 average fractional NGS count over selection days 2 and 3 (reads of this peptide / all reads for the bait, averaged over ….

First: chain 1 ADLAYSENWAQEFLAA
Second: chain 1 ADLAKSENWAQEFLAA
The screen value of the first is higher: 0.00132 average fractional NGS count over selection days 2 and 3 (reads of this peptide / all reads for the bait, averaged over … for the first, 0.000511 average fractional NGS count over selection days 2 and 3 (reads of this peptide / all reads for the bait, averaged over … for the second.

First: chain 1 ADLAMSENWAQEFLAA
Second: chain 1 ADLAPSENWAQEFLAA
The screen value of the first is higher: 0.000827 average fractional NGS count over selection days 2 and 3 (reads of this peptide / all reads for the bait, averaged over … for the first, 0.000702 average fractional NGS count over selection days 2 and 3 (reads of this peptide / all reads for the bait, averaged over … for the second.

First: chain 1 ADLALHENWAQEFLAA
Second: chain 1 ADLALEENWAQEFLAA
The screen value of the first is higher: 0.00186 average fractional NGS count over selection days 2 and 3 (reads of this peptide / all reads for the bait, averaged over … for the first, 0.00164 average fractional NGS count over selection days 2 and 3 (reads of this peptide / all reads for the bait, averaged over … for the second.

Going from chain 1 ADLALFENWAQEFLAA to chain 1 ADLALLENWAQEFLAA, the screen value falls from 0.00174 average fractional NGS count over selection days 2 and 3 (reads of this peptide / all reads for the bait, averaged over … to 0.00108 average fractional NGS count over selection days 2 and 3 (reads of this peptide / all reads for the bait, averaged over ….

First: chain 1 ADLALRENWAQEFLAA
Second: chain 1 ADLALNENWAQEFLAA
The screen value of the first is higher: 0.00161 average fractional NGS count over selection days 2 and 3 (reads of this peptide / all reads for the bait, averaged over … for the first, 0.000624 average fractional NGS count over selection days 2 and 3 (reads of this peptide / all reads for the bait, averaged over … for the second.

In the case of chain 1 ADLALGENWAQEFLAA, the screen value is reported as 0.000749 average fractional NGS count over selection days 2 and 3 (reads of this peptide / all reads for the bait, averaged over ….

Variants of: B2
Test: as above

First: chain 1 H14Y
Second: chain 1 D13M
The screen value of the first is higher: 0.00813 average fractional NGS count over selection days 2 and 3 (reads of this peptide / all reads for the bait, averaged over … for the first, 0.00561 average fractional NGS count over selection days 2 and 3 (reads of this peptide / all reads for the bait, averaged over … for the second.

Going from chain 1 F5S to chain 1 A6W, the screen value rises from 0.000118 average fractional NGS count over selection days 2 and 3 (reads of this peptide / all reads for the bait, averaged over … to 0.000676 average fractional NGS count over selection days 2 and 3 (reads of this peptide / all reads for the bait, averaged over ….

Compared with chain 1 H11G, chain 1 H4A is lower in screen value: 0.000565 average fractional NGS count over selection days 2 and 3 (reads of this peptide / all reads for the bait, averaged over … for the first, 0.000176 average fractional NGS count over selection days 2 and 3 (reads of this peptide / all reads for the bait, averaged over … for the second.

— paper PMC12102759 (2025)
